We go through ten variants from IntAct's records for PubMed 31515488.

The labels stand for the following.
B1: Trichoplein keratin filament-binding protein (Homo sapiens), Q9BT92 (parent)
chain: MALPTLPSYWCSQQRLNQQLARQREQEARLRQQWEQNSRYFRMSDICSSKQAEWSSKTSYQRSMHAYQREKMKEEKRRSLEARREKLRQLMQEEQDLLARELEELRLSMNLQERRIREQHGKLKSAKEEQRKLIAEQLLYEHWKKNNPKLREMELDLHQKHVVNSWEMQKEEKKQQEATAEQENKRYENEYERARREALERMKAEEERRQLEDKLQAEALLQQMEELKLKEVEATKLKKEQENLLKQRWELERLEEERKQMEAFRQKAELGRFLRHQYNAQLSRRTQQIQEELEADRRILQALLEKEDESQRLHLARREQVMADVAWMKQAIEEQLQLERAREAELQMLLREEAKEMWEKREAEWARERSARDRLMSEVLTGRQQQIQEKIEQNRRAQEESLKHREQLIRNLEEVRELARREKEESEKLKSARKQELEAQVAERRLQAWEADQQEEEEEEEARRVEQLSDALLQQEAETMAEQGYRPKPYGHPKIAWN
B2: STAM-binding protein (Homo sapiens), O95630 (parent)
chain: MSDHGDVSLPPEDRVRALSQLGSAVEVNEDIPPRRYFRSGVEIIRMASIYSEEGNIEHAFILYNKYITLFIEKLPKHRDYKSAVIPEKKDTVKKLKEIAFPKAEELKAELLKRYTKEYTEYNEEKKKEAEELARNMAIQQELEKEKQRVAQQKQQQLEQEQFHAFEEMIRNQELEKERLKIVQEFGKVDPGLGGPLVPDLEKPSLDVFPTLTVSSIQPSDCHTTVRPAKPPVVDRSLKPGALSNSESIPTIDGLRHVVVPGRLCPQFLQLASANTARGVETCGILCGKLMRNEFTITHVLIPKQSAGSDYCNTENEEELFLIQDQQGLITLGWIHTHPTQTAFLSSVDLHTHCSYQMMLPESVAIVCSPKFQETGFFKLTDHGLEEISSCRQKGFHPHSKDPPLFCSCSHVTVVDRAVTITDLR
partner: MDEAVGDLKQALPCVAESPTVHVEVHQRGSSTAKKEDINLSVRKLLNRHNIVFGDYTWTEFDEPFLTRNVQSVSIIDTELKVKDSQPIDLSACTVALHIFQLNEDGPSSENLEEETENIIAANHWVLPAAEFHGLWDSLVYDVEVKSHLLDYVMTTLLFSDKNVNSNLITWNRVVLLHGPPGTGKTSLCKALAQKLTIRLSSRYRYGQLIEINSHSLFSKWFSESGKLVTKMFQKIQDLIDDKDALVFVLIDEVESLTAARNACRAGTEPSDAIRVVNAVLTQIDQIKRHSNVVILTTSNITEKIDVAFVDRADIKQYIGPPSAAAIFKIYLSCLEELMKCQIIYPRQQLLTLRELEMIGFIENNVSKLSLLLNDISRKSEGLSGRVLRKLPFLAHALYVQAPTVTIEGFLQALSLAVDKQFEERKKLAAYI
B3: Microtubule-associated tumor suppressor candidate 2 (Homo sapiens), Q5JR59-3 (parent)
chain: MGHCCCKPYNCLQCLDKTNESALVKEKELSIELANIRDEVAFHTAKCEKLQKEKEELERRFEDEVKRLGWQQQAELQELEERLQLQFEAEMARLQEEHGDQLLSIRCQHQEQVEDLTASHDAALLEMENNHTVAITILQDDHDHKVQELMSTHELEKKELEENFEKLRLSLQDQVDTLTFQSQSLRDRARRFEEALRKNTEEQLEIALAPYQHLEEDMKSLKQVLEMKNQQIHEQEKKILELEKLAEKNIILEEKIQVLQQQNEDLKARIDQNTVVTRQLSEENANLQEYVEKETQEKKRLSRTNEELLWKLQTGDPTSPIKLSPTSPVYRGSSSGPSSPARVSTTPR
partner: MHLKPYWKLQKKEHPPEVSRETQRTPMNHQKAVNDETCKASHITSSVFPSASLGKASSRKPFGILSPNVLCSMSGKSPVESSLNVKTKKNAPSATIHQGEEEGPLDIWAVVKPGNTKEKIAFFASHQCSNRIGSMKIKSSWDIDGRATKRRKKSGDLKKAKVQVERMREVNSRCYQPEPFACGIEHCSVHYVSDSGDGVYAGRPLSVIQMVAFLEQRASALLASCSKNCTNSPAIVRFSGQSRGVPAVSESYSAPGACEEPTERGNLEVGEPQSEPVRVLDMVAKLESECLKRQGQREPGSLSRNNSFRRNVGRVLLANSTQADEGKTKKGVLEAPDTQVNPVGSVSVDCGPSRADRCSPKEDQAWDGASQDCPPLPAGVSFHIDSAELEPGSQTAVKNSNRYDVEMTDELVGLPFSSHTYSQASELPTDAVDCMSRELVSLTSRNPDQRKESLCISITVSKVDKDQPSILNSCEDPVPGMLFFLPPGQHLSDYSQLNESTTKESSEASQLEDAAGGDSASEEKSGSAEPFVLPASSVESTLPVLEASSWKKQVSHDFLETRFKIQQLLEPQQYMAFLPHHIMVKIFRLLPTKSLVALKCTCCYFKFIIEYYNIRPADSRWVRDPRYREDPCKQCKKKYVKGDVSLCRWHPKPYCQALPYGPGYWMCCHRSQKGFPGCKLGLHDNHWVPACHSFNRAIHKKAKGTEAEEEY
B4: mRNA-decapping enzyme 1A (Homo sapiens), Q9NPI6 (parent)
chain: MEALSRAGQEMSLAALKQHDPYITSIADLTGQVALYTFCPKANQWEKTDIEGTLFVYRRSASPYHGFTIVNRLNMHNLVEPVNKDLEFQLHEPFLLYRNASLSIYSIWFYDKNDCHRIAKLMADVVEEETRRSQQAARDKQSPSQANGCSDHRPIDILEMLSRAKDEYERNQMGDSNISSPGLQPSTQLSNLGSTETLEEMPSGSQDKSAPSGHKHLTVEELFGTSLPKEQPAVVGLDSEEMERLPGDASQKEPNSFLPFPFEQLGGAPQSETLGVPSAAHHSVQPEITTPVLITPASITQSNEKHAPTYTIPLSPVLSPTLPAEAPTAQVPPSLPRNSTMMQAVKTTPRQRSPLLNQPVPELSHASLIANQSPFRAPLNVTNTAGTSLPSVDLLQKLRLTPQHDQIQTQPLGKGAMVASFSPAAGQLATPESFIEPPSKTAAARVAASASLSNMVLAPLQSMQQNQDPEVFVQPKVLSSAIPVAGAPLVTATTTAVSSVLLAPSVFQQTVTRSSDLERKASSPSPLTIGTPESQRKPSIILSKSQLQDTLIHLIKNDSSFLSTLHEVYLQVLTKNKDNHNL
partner: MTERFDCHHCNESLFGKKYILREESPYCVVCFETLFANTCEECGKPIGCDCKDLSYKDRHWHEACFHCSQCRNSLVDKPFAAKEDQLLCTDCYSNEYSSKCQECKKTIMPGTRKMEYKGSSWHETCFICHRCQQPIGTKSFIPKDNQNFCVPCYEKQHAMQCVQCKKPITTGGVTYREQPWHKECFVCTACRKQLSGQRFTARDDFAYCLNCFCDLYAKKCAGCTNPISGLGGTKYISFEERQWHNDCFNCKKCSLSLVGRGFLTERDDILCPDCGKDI
B5: Tuftelin-interacting protein 11 (Homo sapiens), Q9UBB9 (parent)
chain: MSLSHLYRDGEGRIDDDDDERENFEITDWDLQNEFNPNRQRHWQTKEEATYGVWAERDSDDERPSFGGKRARDYSAPVNFISAGLKKGAAEEAELEDSDDEEKPVKQDDFPKDFGPRKLKTGGNFKPSQKGFAGGTKSFMDFGSWERHTKGIGQKLLQKMGYVPGRGLGKNAQGIINPIEAKQRKGKGAVGAYGSERTTQSMQDFPVVDSEEEAEEEFQKELSQWRKDPSGSKKKPKYSYKTVEELKAKGRISKKLTAPQKELSQVKVIDMTGREQKVYYSYSQISHKHNVPDDGLPLQSQQLPQSGKEAKAPGFALPELEHNLQLLIDLTEQEIIQNDRQLQYERDMVVNLFHELEKMTEVLDHEERVISNLSKVLEMVEECERRMQPDCSNPLTLDECARIFETLQDKYYEEYRMSDRVDLAVAIVYPLMKEYFKEWDPLKDCTYGTEIISKWKSLLENDQLLSHGGQDLSADAFHRLIWEVWMPFVRNIVTQWQPRNCDPMVDFLDSWVHIIPVWILDNILDQLIFPKLQKEVENWNPLTDTVPIHSWIHPWLPLMQARLEPLYSPIRSKLSSALQKWHPSDSSAKLILQPWKDVFTPGSWEAFMVKNIVPKLGMCLGELVINPHQQHMDAFYWVIDWEGMISVSSLVGLLEKHFFPKWLQVLCSWLSNSPNYEEITKWYLGWKSMFSDQVLAHPSVKDKFNEALDIMNRAVSSNVGAYMQPGARENIAYLTHTERRKDFQYEAMQERREAENMAQRGIGVAASSVPMNFKDLIETKAEEHNIVFMPVIGKRHEGKQLYTFGRIVIYIDRGVVFVQGEKTWVPTSLQSLIDMAK
partner: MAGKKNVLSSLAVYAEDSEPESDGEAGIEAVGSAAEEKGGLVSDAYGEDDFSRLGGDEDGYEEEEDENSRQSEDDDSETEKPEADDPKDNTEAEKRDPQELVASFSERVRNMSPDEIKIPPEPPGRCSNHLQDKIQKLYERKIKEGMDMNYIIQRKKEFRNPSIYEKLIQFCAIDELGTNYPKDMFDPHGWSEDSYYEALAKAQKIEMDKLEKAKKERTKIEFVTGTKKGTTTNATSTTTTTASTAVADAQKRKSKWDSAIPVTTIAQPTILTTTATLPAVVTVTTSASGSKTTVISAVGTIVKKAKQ

Variants of B1 are the subject of the first test. To be noted: with ndk7_human NME7, Q9Y5B8.
ndk7_human NME7, Q9Y5B8, sequence (Q9Y5B8 whole entry): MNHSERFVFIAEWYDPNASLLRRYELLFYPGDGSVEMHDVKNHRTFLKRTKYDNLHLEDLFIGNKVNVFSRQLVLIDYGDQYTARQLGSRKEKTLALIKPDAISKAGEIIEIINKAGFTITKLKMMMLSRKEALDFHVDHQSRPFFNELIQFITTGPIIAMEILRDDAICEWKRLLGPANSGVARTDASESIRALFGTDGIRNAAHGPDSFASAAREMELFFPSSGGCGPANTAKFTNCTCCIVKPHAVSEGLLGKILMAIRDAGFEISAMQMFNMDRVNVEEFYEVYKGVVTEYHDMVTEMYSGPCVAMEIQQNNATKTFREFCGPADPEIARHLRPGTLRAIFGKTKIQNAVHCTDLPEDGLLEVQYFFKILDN
As for E417K, the “effect of a mutation on the interaction” value is “with no effect”.
As to K127R, the “effect of a mutation on the interaction” value is “with no effect”.

The variants in the next test derive from B1. The following applies: with KRT15, P19012.
KRT15, P19012, sequence (P19012 whole entry): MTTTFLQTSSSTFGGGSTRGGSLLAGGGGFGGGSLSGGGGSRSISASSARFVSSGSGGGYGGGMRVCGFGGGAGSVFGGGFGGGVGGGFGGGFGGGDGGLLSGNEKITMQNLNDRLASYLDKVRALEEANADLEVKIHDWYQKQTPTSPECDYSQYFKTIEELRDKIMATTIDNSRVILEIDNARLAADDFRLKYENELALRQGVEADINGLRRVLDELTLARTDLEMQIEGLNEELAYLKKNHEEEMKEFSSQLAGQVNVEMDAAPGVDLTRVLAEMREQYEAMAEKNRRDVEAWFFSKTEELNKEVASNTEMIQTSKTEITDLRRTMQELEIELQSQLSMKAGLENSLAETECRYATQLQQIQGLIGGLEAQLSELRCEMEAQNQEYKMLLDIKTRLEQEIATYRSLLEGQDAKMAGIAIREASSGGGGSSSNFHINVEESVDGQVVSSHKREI
Take K127R: the “effect of a mutation on the interaction” value was “with no effect”.

In the next test the parent is B1. To be noted: with cdr2_human CDR2, Q01850.
cdr2_human CDR2, Q01850, sequence (Q01850 whole entry): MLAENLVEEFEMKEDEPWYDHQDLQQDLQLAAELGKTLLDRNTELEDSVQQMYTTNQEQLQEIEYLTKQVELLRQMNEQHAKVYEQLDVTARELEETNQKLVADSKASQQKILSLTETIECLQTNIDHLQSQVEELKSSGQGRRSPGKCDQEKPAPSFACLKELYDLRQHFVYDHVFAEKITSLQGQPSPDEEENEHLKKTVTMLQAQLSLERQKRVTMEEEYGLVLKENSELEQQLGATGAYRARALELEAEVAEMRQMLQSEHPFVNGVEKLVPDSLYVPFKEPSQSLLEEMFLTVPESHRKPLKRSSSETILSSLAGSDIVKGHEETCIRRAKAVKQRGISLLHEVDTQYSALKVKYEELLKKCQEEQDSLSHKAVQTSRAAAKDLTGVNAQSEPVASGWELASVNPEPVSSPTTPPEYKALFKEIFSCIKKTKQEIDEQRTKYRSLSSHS
In the case of K127R, the “effect of a mutation on the interaction” value is reported as “with no effect”.

Variants of B2 are the subject of another test. To be noted: with pch2_human TRIP13, Q15645.
In the case of R255H, the “effect of a mutation on the interaction” value is reported as “with no effect”.
Still for that read-out and setting: the value for Q155H was “disrupting interaction strength”.

Another test covers variants of B3. To be noted: with fbx34_human FBXO34, Q9NWN3.
Take A89V: the “effect of a mutation on the interaction” value is “with no effect”.

The next test covers variants of B4. The following applies: with fhl2_human FHL2, Q14192.
As for Q474H, the “effect of a mutation on the interaction” value is “with no effect”.
Same read-out and setting: to A297G belongs “with no effect”.
Consider P332T, for which the “effect of a mutation on the interaction” value is reported as “with no effect”.

A further test covers variants of B5. The following applies: with SAP30BP.
For R8Q, the “effect of a mutation on the interaction” value is “with no effect”.
Same read-out and setting: to S688L belongs “with no effect”.
